T1: mouse CXCR3 (mouse) (UniProt O88410)
T1 sequence (looked up): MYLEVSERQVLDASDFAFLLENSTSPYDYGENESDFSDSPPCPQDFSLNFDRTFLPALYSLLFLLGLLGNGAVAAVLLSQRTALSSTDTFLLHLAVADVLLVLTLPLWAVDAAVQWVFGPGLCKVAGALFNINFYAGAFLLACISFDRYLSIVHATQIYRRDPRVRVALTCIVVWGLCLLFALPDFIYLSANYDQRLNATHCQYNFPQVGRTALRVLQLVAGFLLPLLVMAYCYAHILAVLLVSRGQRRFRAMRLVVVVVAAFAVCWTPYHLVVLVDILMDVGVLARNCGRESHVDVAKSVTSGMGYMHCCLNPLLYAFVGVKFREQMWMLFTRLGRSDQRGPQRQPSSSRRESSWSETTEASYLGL


Target: T1, mouse CXCR3 (mouse)
Test: cell-based or functional assay

Row | chemokine concentration at which chemotaxis/chemoinvasion responses of B16F10 cells were obtained [ng/mL] | diffusely-stained B16F10 cell population 5 min after CXCL9 (100 ng/ml), phalloidin staining [%] | increase in intracellular Ca2+ concentration after CXCL9 (300 ng/ml) in CXCR3 antisense-transfectant B16F10 clones (CXCR3 protein reduced to about 20-25%) [%] | increase in intracellular Ca2+ concentration of B16F10 cells after CXCL9 (300 ng/ml), Fluo-3 AM [%] | proportion of actin filament polarized B16F10 cells 5 min after CXCL9 (100 ng/ml), phalloidin staining [%] | Molecule
1 | 50 to 100 |  |  |  |  | recombinant CXCL10 (Peprotech, Inc.) (ligand)
2 | 50 to 100 | 22.8 | 5 | 15 to 20 | 38.4 | recombinant CXCL9 (Peprotech, Inc.) (ligand, UniProt P18340 22-126, looked up, species assumed) C-X-C motif chemokine 9: TLVIRNARCSCISTSRGTIHYKSLKDLKQFAPSPNCNKTEIIATLKNGDQTCLDPDSANVKKLMKEWEKKISQKKKQKRGKKHQKNMKNRKPKTPQSRRRSRKTT
3 | 50 to 100 |  |  |  |  | recombinant CXCL11 (Peprotech, Inc.) (ligand, UniProt O14625 22-94, looked up, species assumed) C-X-C motif chemokine 11: FPMFKRGRCLCIGPGVKAVKVADIEKASIMYPSNNCDKIEVIITLKENKGQRCLNPKSKQARLIIKKVERKNF
